Measured values published in paper PMC5379955 (The Journal of Cell Biology, 2017).

T1: ROD^1–1,250 (human, UniProt P50748 1-1250)
T1 sequence (looked up): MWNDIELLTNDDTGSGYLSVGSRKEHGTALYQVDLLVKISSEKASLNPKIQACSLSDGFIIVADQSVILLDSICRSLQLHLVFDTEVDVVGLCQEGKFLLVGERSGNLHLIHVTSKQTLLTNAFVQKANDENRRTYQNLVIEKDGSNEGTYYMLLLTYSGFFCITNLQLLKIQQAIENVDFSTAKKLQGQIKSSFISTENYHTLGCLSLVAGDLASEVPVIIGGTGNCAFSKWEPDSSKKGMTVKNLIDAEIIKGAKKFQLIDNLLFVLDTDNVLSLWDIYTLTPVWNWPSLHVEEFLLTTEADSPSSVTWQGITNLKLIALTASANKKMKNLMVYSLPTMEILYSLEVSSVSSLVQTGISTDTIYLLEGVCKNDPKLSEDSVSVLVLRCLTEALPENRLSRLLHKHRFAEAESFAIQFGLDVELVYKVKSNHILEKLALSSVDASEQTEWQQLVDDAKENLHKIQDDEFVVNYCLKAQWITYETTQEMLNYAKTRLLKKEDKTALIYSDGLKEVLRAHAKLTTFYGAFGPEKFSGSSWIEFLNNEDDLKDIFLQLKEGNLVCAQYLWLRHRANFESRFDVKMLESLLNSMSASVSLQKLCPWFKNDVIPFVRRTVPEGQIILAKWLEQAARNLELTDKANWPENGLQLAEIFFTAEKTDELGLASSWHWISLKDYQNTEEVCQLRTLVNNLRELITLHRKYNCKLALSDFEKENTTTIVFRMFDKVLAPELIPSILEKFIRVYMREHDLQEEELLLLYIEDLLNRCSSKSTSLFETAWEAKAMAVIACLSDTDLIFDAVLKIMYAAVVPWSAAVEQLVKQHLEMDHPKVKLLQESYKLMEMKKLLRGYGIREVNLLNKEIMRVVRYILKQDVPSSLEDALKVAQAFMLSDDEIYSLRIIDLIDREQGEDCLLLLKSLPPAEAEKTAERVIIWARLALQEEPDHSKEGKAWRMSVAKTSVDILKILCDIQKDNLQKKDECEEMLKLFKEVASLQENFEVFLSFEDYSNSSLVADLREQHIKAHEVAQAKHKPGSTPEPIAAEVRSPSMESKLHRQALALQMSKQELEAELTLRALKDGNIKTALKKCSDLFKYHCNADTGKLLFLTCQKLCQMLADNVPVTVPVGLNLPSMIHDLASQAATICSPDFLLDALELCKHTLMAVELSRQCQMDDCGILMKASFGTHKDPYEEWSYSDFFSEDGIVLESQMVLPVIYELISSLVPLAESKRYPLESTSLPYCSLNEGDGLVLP

B1: Zwilch (natural protein)
chain: not shown

Columns and labels:
ROD^1–1,250 [1] = molecular target: T1, ROD^1–1,250; assay: negative-stain EM 3D reconstruction
ROD^1–1,250 [2] = molecular target: T1, ROD^1–1,250; assay: co-expression and co-purification
[3] = molecular target: ROD–Zwilch–ZW10 (RZZ) complex (human, UniProt P50748 1-2209; Q9H900 1-591; O43264 1-779); assay: AUC
Zwilch = molecular target: B1; assay: SEC
Chain of Zwilch (Q9H900 whole entry): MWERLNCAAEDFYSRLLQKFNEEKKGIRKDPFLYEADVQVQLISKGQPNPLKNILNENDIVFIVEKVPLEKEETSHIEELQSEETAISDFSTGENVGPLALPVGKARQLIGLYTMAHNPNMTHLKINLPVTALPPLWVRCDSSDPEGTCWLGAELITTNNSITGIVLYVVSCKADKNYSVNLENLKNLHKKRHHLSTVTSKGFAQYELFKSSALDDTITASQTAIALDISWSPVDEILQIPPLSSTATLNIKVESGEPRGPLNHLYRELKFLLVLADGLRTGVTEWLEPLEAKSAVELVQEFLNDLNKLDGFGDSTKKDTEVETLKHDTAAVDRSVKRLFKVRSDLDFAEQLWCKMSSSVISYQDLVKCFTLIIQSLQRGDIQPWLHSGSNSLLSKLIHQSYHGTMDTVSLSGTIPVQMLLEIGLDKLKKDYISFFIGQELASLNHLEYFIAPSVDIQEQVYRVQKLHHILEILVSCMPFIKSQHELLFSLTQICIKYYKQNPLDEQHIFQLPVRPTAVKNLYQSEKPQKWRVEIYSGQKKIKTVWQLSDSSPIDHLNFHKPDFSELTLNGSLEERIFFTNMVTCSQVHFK

Chain of ROD–Zwilch–ZW10 (RZZ) complex (Q9H900 whole entry, one chain of several): as the sequence (Q9H900 whole entry) above

Binder | binding result (ROD^1–1,250 [1]) | binding result (ROD^1–1,250 [2]) | stoichiometry N [3] | binding result (Zwilch)
ZW10 (natural protein, human, UniProt O43264 1-779, looked up) MASFVTEVLAHSGRLEKEDLGTRISRLTRRVEEIKGEVCNMISKKYSEFLPSMQSAQGLITQVDKLSEDIDLLKSRIESEVRRDLHVSTGEFTDLKQQLERDSVVLSLLKQLQEFSTAIEEYNCALTEKKYVTGAQRLEEAQKCLKLLKSRKCFDLKILKSLSMELTIQKQNILYHLGEEWQKLIVWKFPPSKDTSSLESYLQTELHLYTEQSHKEEKTPMPPISSVLLAFSVLGELHSKLKSFGQMLLKYILRPLASCPSLHAVIESQPNIVIIRFESIMTNLEYPSPSEVFTKIRLVLEVLQKQLLDLPLDTDLENEKTSTVPLAEMLGDMIWEDLSECLIKNCLVYSIPTNSSKLQQYEEIIQSTEEFENALKEMRFLKGDTTDLLKYARNINSHFANKKCQDVIVAARNLMTSEIHNTVKIIPDSKINVPELPTPDEDNKLEVQKVSNTQYHEVMNLEPENTLDQHSFSLPTCRISESVKKLMELAYQTLLEATTSSDQCAVQLFYSVRNIFHLFHDVVPTYHKENLQKLPQLAAIHHNNCMYIAHHLLTLGHQFRLRLAPILCDGTATFVDLVPGFRRLGTECFLAQMRAQKGELLERLSSARNFSNMDDEENYSAASKAVRQVLHQLKRLGIVWQDVLPVNIYCKAMGTLLNTAISEVIGKITALEDISTEDGDRLYSLCKTVMDEGPQVFAPLSEESKNKKYQEEVPVYVPKWMPFKELMMMLQASLQEIGDRWADGKGPLAAAFSSSEVKALIRALFQNTERRAAALAKIK | binds | binds |  | 
farnesylated Spindly (Spindly^Farn) (natural protein, human, UniProt Q96EA4 1-605, looked up, farnesyl on Cys602) MEADIITNLRCRLKEAEEERLKAAQYGLQLVESQNELQNQLDKCRNEMMTMTESYEQEKYTLQREVELKSRMLESLSCECEAIKQQQKMHLEKLEEQLSRSHGQEVNELKTKIEKLKVELDEARLSEKQLKHQVDHQKELLSCKSEELRVMSERVQESMSSEMLALQIELTEMESMKTTLKEEVNELQYRQEQLELLITNLMRQVDRLKEEKEEREKEAVSYYNALEKARVANQDLQVQLDQALQQALDPNSKGNSLFAEVEDRRAAMERQLISMKVKYQSLKKQNVFNREQMQRMKLQIATLLQMKGSQTEFEQQERLLAMLEQKNGEIKHLLGEIRNLEKFKNLYDSMESKPSVDSGTLEDNTYYTDLLQMKLDNLNKEIESTKGELSIQRMKALFESQRALDIERKLFANERCLQLSESENMKLRAKLDELKLKYEPEETVEVPVLKKRREVLPVDITTAKDACVNNSALGGEVYRLPPQKEETQSCPNSLEDNNLQLEKSVSIYTPVVSLSPHKNLPVDMQLKKEKKCVKLIGVPADAEALSERSGNTPNSPRLAAESKLQTEVKEGKETSSKLEKETCKKLHPILYVSSKSTPETQCPQQ |  |  | 2 copies of each subunit | 
mCherry–Spindly^Farn (natural protein, human, UniProt Q96EA4 1-605, looked up, farnesyl on Cys602) MEADIITNLRCRLKEAEEERLKAAQYGLQLVESQNELQNQLDKCRNEMMTMTESYEQEKYTLQREVELKSRMLESLSCECEAIKQQQKMHLEKLEEQLSRSHGQEVNELKTKIEKLKVELDEARLSEKQLKHQVDHQKELLSCKSEELRVMSERVQESMSSEMLALQIELTEMESMKTTLKEEVNELQYRQEQLELLITNLMRQVDRLKEEKEEREKEAVSYYNALEKARVANQDLQVQLDQALQQALDPNSKGNSLFAEVEDRRAAMERQLISMKVKYQSLKKQNVFNREQMQRMKLQIATLLQMKGSQTEFEQQERLLAMLEQKNGEIKHLLGEIRNLEKFKNLYDSMESKPSVDSGTLEDNTYYTDLLQMKLDNLNKEIESTKGELSIQRMKALFESQRALDIERKLFANERCLQLSESENMKLRAKLDELKLKYEPEETVEVPVLKKRREVLPVDITTAKDACVNNSALGGEVYRLPPQKEETQSCPNSLEDNNLQLEKSVSIYTPVVSLSPHKNLPVDMQLKKEKKCVKLIGVPADAEALSERSGNTPNSPRLAAESKLQTEVKEGKETSSKLEKETCKKLHPILYVSSKSTPETQCPQQ |  |  | 2 copies of each subunit | 
B1 | binds | binds |  | 
ROD^Δ754–1,796 (domain or fragment, human) MWNDIELLTNDDTGSGYLSVGSRKEHGTALYQVDLLVKISSEKASLNPKIQACSLSDGFIIVADQSVILLDSICRSLQLHLVFDTEVDVVGLCQEGKFLLVGERSGNLHLIHVTSKQTLLTNAFVQKANDENRRTYQNLVIEKDGSNEGTYYMLLLTYSGFFCITNLQLLKIQQAIENVDFSTAKKLQGQIKSSFISTENYHTLGCLSLVAGDLASEVPVIIGGTGNCAFSKWEPDSSKKGMTVKNLIDAEIIKGAKKFQLIDNLLFVLDTDNVLSLWDIYTLTPVWNWPSLHVEEFLLTTEADSPSSVTWQGITNLKLIALTASANKKMKNLMVYSLPTMEILYSLEVSSVSSLVQTGISTDTIYLLEGVCKNDPKLSEDSVSVLVLRCLTEALPENRLSRLLHKHRFAEAESFAIQFGLDVELVYKVKSNHILEKLALSSVDASEQTEWQQLVDDAKENLHKIQDDEFVVNYCLKAQWITYETTQEMLNYAKTRLLKKEDKTALIYSDGLKEVLRAHAKLTTFYGAFGPEKFSGSSWIEFLNNEDDLKDIFLQLKEGNLVCAQYLWLRHRANFESRFDVKMLESLLNSMSASVSLQKLCPWFKNDVIPFVRRTVPEGQIILAKWLEQAARNLELTDKANWPENGLQLAEIFFTAEKTDELGLASSWHWISLKDYQNTEEVCQLRTLVNNLRELITLHRKYNCKLALSDFEKENTTTIVFRMFDKVLAPELIPSILEKFIRVYMREHDLQEEGGSGGGSGGGSGGGSGIHAAAKEIAEVNEINLEKVWDMLLEKWLCPSTKPGEKPSELFELQEDEALRRVQYLLLSRPIDYSSRMLFVFATSTTTTLGMHQLTFAHRTRALQCLFYLADKETIESLFKKPIEEVKSYLRCITFLASFETLNIPITYELFCSSPKEGMIKGLWKNHSHESMAVRLVTELCLEYKIYDLQLWNGLLQKLLGFNMIPYLRKVLKAISSIHSLWQVPYFSKAWQRVIQIPLLSASCPLSPDQLSDCSESLIAVLECPVSGDLDLIGVARQYIQLELPAFALACLMLMPHSEKRHQQIKNFLGSCDPQVILKQLEEHMNTGQLAGFSHQIRSLILNNIINKKEFGILAKTKYFQMLKMHAMNTNNITELVNYLANDLSLDEASVLITEYSKHCGKPVPPDTAPCEILKMFLSGLS |  |  |  | binds
